# Test results: patent US20240084019A1 (OSE IMMUNOTHERAPEUTICS, published 2024)
# T1: Biot-C7 peptide: biotinylated NH2-PYHTLNLLELHHTAMPGSVFSLGLPLATALAIA-COOH (human, biotinylated (position not given))
# T1 construct: also called C7biot; biotinylated antigen-specific peptide
# T1 peptide: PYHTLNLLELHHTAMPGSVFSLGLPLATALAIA
# Experiments:
# [1] = biological target: T1, Biot-C7 peptide: biotinylated …; assay: activity ELISA on biotinylated C7 peptide; column head printed ED50 (ng/ml)
# [2] = biological target: T1, Biot-C7 peptide: biotinylated …; assay: activity ELISA on Biot-C7 peptide; column head printed ED50 (ng/ml)
# [3] = biological target: T1, Biot-C7 peptide: biotinylated …; assay: activity ELISA on Biot-C7 peptide; column head printed ED50 (ng/ml); batch #170919
# [4] = biological target: T1, Biot-C7 peptide: biotinylated …; assay: activity ELISA on Biot-C7 peptide; column head printed ED50 (ng/ml); second batch, no number
Binder,EC50 [1],EC50 [2],EC50 [3],EC50 [4]
"HDLD humanized anti-CMKLR1 antibody (antibody, human IgG1, V domains shown, Variable domains only; fused to constant fragment of human immunoglobulin (human IgG1, kappa)) VH: EVQLVESGGGLVQPGGSLRLSCAASGFTFSSYAMSWVRQAPGKGLELVATINRYGGSTYYAASVKGRFTISRDNSKNTLYLQMNSLRAEDTAVYYCPKLIYYGNEGDSWGQGTLVTVSS VL: AIQLTQSPSSLSASVGDRVTITCRASQSVSFLHWYQQKPGKAPKRWIYDATKLTSGVPSRFSGSGSGTDFTLTISSLQPEDFATYYCQQWQSKPPLTFGGGTKVEIK",0.195 µg/mL,0.193 µg/mL,,
"HCLC humanized anti-CMKLR1 antibody (antibody, human IgG1, V domains shown, Variable domains only; fused to constant fragment of human immunoglobulin (human IgG1, kappa)) VH: EVQLVESGGGLVQPGGSLRLSCAASGFTFSSYGMSWVRQAPGKGLELVATINRYGGSTYYAASVKGRFTISRDNSKNTLYLQMNSLRAEDTAVYYCPKLIYYGNEGDSWGQGTLVTVSS VL: AIQLTQSPSSLSASVGDRVTITCRASQSVSFLHWYQQKPGKAPKRWIYDATKLTSGVPSRFSGSGSGTDFTLTISSLQPEDFATYYCQQWNSKPPLTFGGGTKVEIK",0.167 µg/mL,,,
"HALA humanized anti-CMKLR1 antibody (VHvAv3-23*04 + VLvAv1-13*01) (antibody, human IgG1, V domains shown, Variable domains only; also called germline antibody HALA; IGHV3-23*04 + IGKV1-13*02) VH: EVQLVESGGGLVQPGGSLRLSCAASGFTFSSYGMSWVRQAPGKGLELVATINRYGGSTYYPDSVKGRFTISRDNSKNTLYLQMNSLRAEDTAVYYCPRLIYYGNEGDSWGQGTLVTVSS VL: AIQLTQSPSSLSASVGDRVTITCSASSSVSFMHWYQQKPGKAPKRWIYDTTKLTSGVPSRFSGSGSGTDYTLTISSLQPEDFATYYCQQWNSKPPLTFGGGTKVEIK",0.557 µg/mL,,0.253 µg/mL,0.195 µg/mL
"HCLD humanized anti-CMKLR1 antibody (antibody, human IgG1, V domains shown, Variable domains only; fused to constant fragment of human immunoglobulin (human IgG1, kappa)) VH: EVQLVESGGGLVQPGGSLRLSCAASGFTFSSYGMSWVRQAPGKGLELVATINRYGGSTYYAASVKGRFTISRDNSKNTLYLQMNSLRAEDTAVYYCPKLIYYGNEGDSWGQGTLVTVSS VL: AIQLTQSPSSLSASVGDRVTITCRASQSVSFLHWYQQKPGKAPKRWIYDATKLTSGVPSRFSGSGSGTDFTLTISSLQPEDFATYYCQQWQSKPPLTFGGGTKVEIK",0.333 µg/mL,,,

# Other lines, results leading:
EC50 [1],EC50 [2],EC50 [3],EC50 [4],Binder
0.269 µg/mL,0.222 µg/mL,,,"anti-CMKLR1 antibody 2G1 (parental chimeric antibody) (antibody, human IgG1, V domains shown, also called 2G1 wt; 2G1 WT) VH: EVQLVASGGGLVQPGGSLKLSCAASGFTFSSYGMSWVRQTPDRRLELVATINRYGGSTYYPDSVKGRFTISRDNAKNTLYLQMSSLKSEDTAMYYCPRLIYYGNEGDSWGQGTTLTVSS VL: QIVLTQSPAIMSASPGEKVTMTCSASSSVSFMHWYQQKSGTSPKRWIYDTTKLTSGVPARFSGSGSGTFYSLTISSMEAEDAATYYCQQWNSKPPLTFGPGTKLELKR"
,0.237 µg/mL,,,"HD-LDT52S humanized anti-CMKLR1 antibody (antibody, V domains shown, fused to constant fragment of human immunoglobulin) VH: EVQLVESGGGLVQPGGSLRLSCAASGFTFSSYAMSWVRQAPGKGLELVATINRYGGSTYYAASVKGRFTISRDNSKNTLYLQMNSLRAEDTAVYYCPKLIYYGNEGDSWGQGTLVTVSS VL: AIQLTQSPSSLSASVGDRVTITCRASQSVSFLHWYQQKPGKAPKRWIYDASKLTSGVPSRFSGSGSGTDFTLTISSLQPEDFATYYCQQWQSKPPLTFGGGTKVEIK"
,0.126 µg/mL,,,"HEF-LDT52S humanized anti-CMKLR1 antibody (antibody, V domains shown, fused to constant fragment of human immunoglobulin) VH: EVQLVESGGGLVQPGGSLRLSCAASGFTFSSYAMSWVRQAPGKGLELVSTISGSGGSTYYAASVKGRFTISRDNSKNTLYLQMNSLRAEDTAVYYCPKLIYYGNEGDSWGQGTLVTVSS VL: AIQLTQSPSSLSASVGDRVTITCRASQSVSFLHWYQQKPGKAPKRWIYDASKLTSGVPSRFSGSGSGTDFTLTISSLQPEDFATYYCQQWQSKPPLTFGGGTKVEIK"
,0.183 µg/mL,,,"HEF-LEF humanized anti-CMKLR1 antibody (antibody, V domains shown, fused to constant fragment of human immunoglobulin) VH: EVQLVESGGGLVQPGGSLRLSCAASGFTFSSYAMSWVRQAPGKGLELVSTISGSGGSTYYAASVKGRFTISRDNSKNTLYLQMNSLRAEDTAVYYCPKLIYYGNEGDSWGQGTLVTVSS VL: AIQLTQSPSSLSASVGDRVTITCRASQSVSFLHWYQQKPGKAPKRLIYDASKLESGVPSRFSGSGSGTDFTLTISSLQPEDFATYYCQQWQSKPPLTFGGGTKVEIK"
0.197 µg/mL,,,,"HDLC humanized anti-CMKLR1 antibody (antibody, human IgG1, V domains shown, Variable domains only; fused to constant fragment of human immunoglobulin (human IgG1, kappa)) VH: EVQLVESGGGLVQPGGSLRLSCAASGFTFSSYAMSWVRQAPGKGLELVATINRYGGSTYYAASVKGRFTISRDNSKNTLYLQMNSLRAEDTAVYYCPKLIYYGNEGDSWGQGTLVTVSS VL: AIQLTQSPSSLSASVGDRVTITCRASQSVSFLHWYQQKPGKAPKRWIYDATKLTSGVPSRFSGSGSGTDFTLTISSLQPEDFATYYCQQWNSKPPLTFGGGTKVEIK"
